According to the DeepSol protein solubility set:

Experiment: soluble on expression in E. coli; label from the status in PepcDB or PDB records

| Sequence | soluble on expression in E. coli |
| --- | --- |
| MGSDKIHHHHHHMDQARTTTVDHPDRETPFLLFAQHGWDDRSYPIQQMAQSIAPQYSQVYAPNLGRFRTWIAIEPLIQSVEAVVLEAIAQYPDRPLRFLGHSMGGLIWLEVLSRHREWWDRTHSLVLVGSPVSGSDVCRLLDPFGRLPSIAKDLGRNRRPLAEAIAAQIPTASIVSDLGDYSDGLVPVNSSEFERATLVTLKDISHARLKSHPQVADAIAQFWKQPSIAPRPRDRAGTLIAQLRSLNLTECNHRNFAKAAVLKSQPDGVKIWRWLNPLRVQHIFVSSPDPATGRDCCRYAAYTGWLDDAALSKFLEKL | not soluble |
| GKKDTQSITLEELAKIIKKCKHVVALTGSGTSAESNIPSFRGSSNSIWSKYDPRIYGTIWGFWKYPEKIWEVIRDISSDYEIEINNGHVALSTLESLGYLKSVVTQNVDGLHEASGNTKVISLHGNVFEAVCCTCNKIVKLNKIMLQKTSHFMHQLPPECPCGGIFKPNIILFGEVVSSDLLKEAEEEIAKCDLLLVIGTSSTVSTATNLCHFACKKKKKIVEINISKTYITNKMSDYHVCAKFSELTKVANILKGSSEKNKKIM | soluble |
| MSLNIAKIVREAREQSRLTTLDFATGIFDEFIQLHGDRSFRDDGAVVGGIGWLGDQAVTVVGIQKGKSLQDNLKRNFGQPHPEGYRKALRLMKQAEKFGRPVVTFINTAGAYPGVGAEERGQGEAIARNLMEMSDLKVPIIAIIIGEGGSGGALALAVADRVWMLENSIYAILSPEGFASILWKDGTRAMEAAELMKITSHELLEMDVVDKVISEVGLSSKELIKSVKKELQTELARLSQKPLEELLEERYQRFRKYEGHHHHHH | soluble |
| MGSDKIHHHHHHMLTCNGSKTFQTFIKAVTDLINSNLLEDQMVCGIEKLLEELLEKKTWLPLEKQKANSAQYARHLLYEDPLNRFEVLALVWKDGQSTPLHDHDGTWGVEGVFTGRIMVQNFIQTKQLENSLVYLTHTGNLYLGEGETDKVIPPADCHILEIDDNESVVTIHVYGKRLEKFKVYVPTKEKNVYTCETKYIRYNS | not soluble |
| SLMAGLPNSSNALQQWHHLFEAEGTKRSPQAQQHLQQLLRTGLPTRKHENWKYTPLEGLINSQFVSIAGEISPQQRDALALTLDSVRLVFVDGRYVPALSDATEGSGYEVSINDDRQGLPDAIQAEVFLHLTESLAQSVTHIAVKRGQRPAKPLLLMHITQGVAGEEVNTAHYRHHLDLAEGAEATVIEHFVSLNDARHFTGARFTINVAANAHLQHIKLAFENPLSHHFAHNDLLLAEDATAFSHSFLLGGAVLRHNTSTQLNGENSTLRINSLAMPVKNEVCDTRTWLEHNKGFCNSRQLHKTIVSDKGRAVFNGLINVAQHAIKTDGQMTNNNLLMGKLAEVDTKPQLEIYADDVKCSHGATVGRIDDEQIFYLRSRGINQQDAQQMIIYAFAAELTEALRDEGLKQQVLARIGQRLPGGAREGGSHHHHHH | soluble |
| MAINLQTLFKKKREGKKITMVSTYDYWSAKLCDEVGIDCILVGDSLGTVVKGEGDTLSVTLEEIIYHTKCVMRGVKNAFVIADMPFMSYQVSMEKAVENCGRVIKETKAKAVKLEGGEEIAELVYKLTRIGIPVVGHVGFTPQHINVFGKPKVVGKKKEEEEKLRRDFRALEEAGAFMIVLESVPTHLAKELWKGSNSIVIGIGAGKYVDGQVLVFHDIVGLFEDFKPKFVRRYLEGAKLVKEALKNFKIDVEGGNFPSEEESYG | not soluble |
| MSEQYKQPNTPEPYWRQSTPLPDFKPLQNDLLVDVVIVGGGITGITTAYLLQKRGKKVVILEADRLFNGTTGHTTAKITAQHGLIYDEFIQHFGEDKAKQYYDAQMEAKTFIKNTVQDLSIDCDFQEHDAYIYTNANRYLAKLEREMRAYEKLQINGSLIDSMPLQVPIKKAIVMKGQAQFHPIAYLMKLVQDFIDRGGLIFEHTVATDVDKGEHRTVLTRDGHKVTCDYVVESSHFPFFDRGFYFSRMYADRSYVLGLKVKEPYPGGMYLSAEDPPRSIRHASYQGEDLWLISGETHKTGQGMDTDYHYEALESFSREMFNVTDISYRWSAQDLVTLDRMPYIGPATSNDPHILVATGFRKWGMTNGTIAAHVITDLIIGQVNAYQKLFAPQRFVADPSLRKFFSYNVDVAKHLIDGKTEKGSRTPESLQKDEGDVVNVNGKRAGGYRDTDGALHLVDTTCTHMGCEVSWNHGDRTWDCPCHGSRFSYDGEVVEGPAKKPLKKIDHTLEHHHHHH | soluble |
| KYIDRAGKLAYDSHIAYHRIKGLSQTVLERVQEAVVVINAEGLAVLFNRKAKDLFPALEIGRRAGLSDSAAELWDQASPHTFEYVLGTPGLNAGIRAVPVNKGSDKLLILYIRPQSEIQAEALSVKLAALGQLTANLAHEIRNPMSAIRHANDLLRENMEAGAADPFNAKLCKIIDGNICRIDKMLEDISSLNKRNKTERETIGLIPFWEEFKQEFLLGHPDAADCIRPDIQGGSPTAYFDPAHLRQIMWNLANNAWRHSRKQPGSISVTIRPAQKNTVCILFADRPKCRNTCSNPFTPRRKTAPASGCMSPANWRTPISAI | not soluble |
| KDDKVASATDVQFETPLKIVEYPDPILRAKNKRIDIFDENLKNLVDAMFDVMYKTDGIGLSAPQVGLNVQLMVFNPAGEPGEGKEIVLVNPKIKKYSDKLVPFDEGCLSFPGIYAEVVRPQSVKIDARDITGERFSISLSRLPARIFQHEYDHLEGVLFFDRMTDQVLDSIREELEALEKKYEEKTGLPSPER | soluble |
| RPAEEIIQGQIEVTEYRVSSKVPGRIKELRVSEGQQVQAGDTLAVIEAPDVAAKMEQAKAAEAAAQAQNAKALKGARSEQIQAAYEMWQKAQAGVAIATKTHQRVQNLYDQGVVPAQKLDEATAQRDAAIATQKAAEAQYNMARNGAEREDKLAASALVDRARGAVAEVESYINETYLIAPRAGEVSEIFPKAGELVGTGAPIMNIAEMGDMWASFAVRED | not soluble |
| MIQEPARVQAAPTFEATIREDNAKYQETAAGGTYSSPNCSCSQRRTRPTEPTKDSPTSTITTIPIVIDSKPNPRILLIRVPTSNRGSNSNNNSNSTRSGTEHRAPRTRIIRIPFLPGSVPTRPPSNQAAPATSSLVNPIGSARRCRISTYPTTGTLTSRSQPETVAGLPTTAMVNQTVPVLSSAPQTQTLAAMAGIQLTGADEPPSRRDVSGAMPTATVEEIDVPVFIDEYLQDIEATSSTCNSENGKEIFTETDILDFDINMFAEEDLIELEGKKTDPFSPAMDGMNNDNLDDDFLQLNDLLNEEETFDMSSMSGVGIDINQEQELDFINIFHNSQPTAMLTSSEDPYLATYSQATSTSSTTKFITEEPLLADMTSFDISYTSSQELGFGLVEDVSGSFASSCSDVAAAIPAPIQHPIITNIKRSAPAPVESQPTKRSRLMLQIKTELAPAFSPTTPEIINQLLNDDRFEAPTTSTSTSTSNTSISSSTHADIVEDLRSAEEETTTDFSAPNTPHSNYSASSSCAAPTCQTGYGGFLTAPTSPAYSTASTSVFSPSPASGISGKRKRGRPAKDHADGPDPVLMSSMKSEEERKAYQDRLKNNEASRVSRRKTKVREEEEKRAEDTLLAENLRLRARADEVASRERKFKKYLMERQRQKSTYVKQEQD | not soluble |
| LLNQGGEKLLDYYFTKTNYMERENARRYNDLRDYVKKNKLSTEDTDRLAEWVRRQEVVWMQMYRDHILLYDSQFPYMKANPEYHVTGQFYEWNGYEMIDFQDGEALVFLTGMYTYQFFNY | not soluble |
| MGSDKIHHHHHHMEEVVKRLAEIRAMDARGEGGRLFTYLYETGDPGVKEVSLRAFEMFLDTNALDPTVFKSALFFERELVSFASSLAGGVEGVVGTVTYGGTESIILAAMAAREWYRSLGGSRTPGIVAPQTVHPSVRKAARYLGMRLSIAPVDPGSKRVDIDSLVSLVDDRTAMVVVSAPNYPYGTVDDVRSVAEALSSQRVWLHVDACVGGFILPFMRELGLYSGAFAFDVEGVYSVSMDLHKYGYSPKGASVLLFRDGSLKKHSIFADLRWPGYPFINTTVLSSRSVAPLAAAWAVTNYLGRRGYLELARKAVEARDEIMRGLESIGFRSLAPIESTILSVALDDPADTLRFHANMSRRGWILGLQPGVEGLAPPNIHLTISPIHKLVSPQFLGDARASSSEPLPKELEEAWRLLESRGPLELAGMIGRTQYDQVIIAWILSSIPPDLAEDLARELTVEVYRG | not soluble |
